Results published in US20200087363A1 (IMMATICS BIOTECHNOLOGIES, published 2020).

Biological target: T1, HLA-B*44:05 (human)
T1 construct: also called peptide-receptive MHC class I molecule
Assay: UV peptide exchange, anti-b2m ELISA
Experimental: Only peptide candidates that can effectively bind and stabilize the peptide-receptive MHC molecules prevent dissociation of the MHC complexes. To determine the yield of the exchange reaction, an ELISA was performed based on the detection of the light chain (β2m) of stabilized MHC complexes. The assay was performed as generally described in Rodenko et al. (Rodenko et al., 2006)
96 well MAXISorp plates (NUNC) were coated over night with 2 ug/ml streptavidin in PBS at room temperature, washed 4× and blocked for 1 h at 37° C. in 2% BSA containing blocking buffer. […] Peptide-MHC monomers of the UV-exchange reaction were diluted 100-fold in blocking buffer. Samples were incubated for 1 h at 37° C., washed four times, incubated with 2 ug/ml HRP conjugated anti-β2m for 1 h at 37° C., washed again and detected with TMB solution that is stopped with […]. Absorption was measured at 450 nm.

peptide exchange yield	Binder
50 to 75%	KESMLKTTL
20 to 50%	RLLPGKVVW
50 to 75%	QELEQEVISL
50 to 75%	KEVASNSEL
50 to 75%	VEDDNYKLSL
50 to 75%	AECILSKRL
20 to 50%	YENILNAI
50 to 75%	EEFCFSVRF
> 75%	AERIMFSDL
50 to 75%	TENPKKFKI
50 to 75%	QEWDPQKTEKY
> 75%	QELLDIANYL
10 to 20%	DESADSEPHKY
> 75%	SEDLAVHL
50 to 75%	VEFPATRSL
50 to 75%	SQYPHTHTF
20 to 50%	SEYQDGKEF
> 75%	KEFGIGDLVW
50 to 75%	SEQNIQRANLF
10 to 20%	DQVTVFLHF
> 75%	IEVSSPITL
20 to 50%	VELEVPQL
10 to 20%	EDLAVHLY
20 to 50%	EDNLIHKF

peptide exchange yield	Binder
50 to 75%	EEEDRDGHTW
50 to 75%	MEFQGPMPAGM
20 to 50%	IEVSSPITLQAL
> 75%	REVSVVDIL
50 to 75%	QEIGQKTSV
20 to 50%	KQTEATMTF
> 75%	EEWEWIQKL
20 to 50%	EGEDAHLTQY
50 to 75%	AELDHLASL
50 to 75%	TEFELLHQV
50 to 75%	GEPVTQPGSLL
50 to 75%	QEILHGAVRF
50 to 75%	QEDEQLLLRF
20 to 50%	AAEPLVGQRW
20 to 50%	DEYLIPQQGFF
20 to 50%	EESSSPVDEY
> 75%	RELGFTEATGW
20 to 50%	DEQLLLRF
20 to 50%	GEDAHLTQY
50 to 75%	REDLVGPEV
50 to 75%	VELMFPLLL
10 to 20%	HEIPQESL
50 to 75%	CDAQIQYSY
50 to 75%	QEFPAHSL

peptide exchange yield	Binder
> 75%	YEMAIYKKY
20 to 50%	DEIDKLTGY
20 to 50%	AETIFIVRL
50 to 75%	GETCVRITY
50 to 75%	AEQLRGFNA
50 to 75%	RELIKAIGL
50 to 75%	TEHFLKKFF
> 75%	VEQINISQDW
50 to 75%	KESQLPTVMDF
20 to 50%	DELSVGRY
50 to 75%	QEVAGYVLI
20 to 50%	EEFIGKIGI
50 to 75%	HEHGLFNLY
50 to 75%	MELQVSSGF
50 to 75%	AEHPDFSPCSF
50 to 75%	GEQPPEGQW
> 75%	HELALRQTV
50 to 75%	MESAKETRY
10 to 20%	KQWEYNEKLAF
50 to 75%	AEVQIARKL
20 to 50%	DEDYTYLIL
50 to 75%	VESSQAFTW
20 to 50%	VEEEISRHY
